The values that follow are results of earlier work, collected in article PMC6295471.

Among the targets are Sap30 SID (Mus musculus) (UniProt O88574); Mxd1 5-24 (Homo sapiens) (UniProt Q05195); Mxd1 5-20 (Homo sapiens) (UniProt Q05195).
UniProt Q05195, sequence (Q05195 5-24): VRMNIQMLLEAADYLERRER
UniProt O88574, sequence (O88574 130-220): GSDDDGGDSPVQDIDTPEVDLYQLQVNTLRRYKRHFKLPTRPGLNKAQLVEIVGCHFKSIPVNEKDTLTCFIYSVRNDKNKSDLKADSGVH

As for Sin3 PAH3 (from UniProt Q60520), in the data set with Sap30 SID (Mus musculus), the Kd was 10 nM.
Consider Sin3 PAH2 (from UniProt Q62141), for which the Kd is 400 nM with Mxd1 5-24 (Homo sapiens) and 1400 nM with Mxd1 5-20 (Homo sapiens).
